What all share (assay): SPR
(Surface plasmon resonance follows binding to a sensor surface in real time, without labels.)

The target in data set [1] is T1, beta-catenin FL (UniProt P35222 1-781).
For data set [2], the target named is T1, beta-catenin FL. This is another data set of the same source.
Data set [3] has as its target HuR (UniProt Q15717 1-326).
The target in data set [4] is T1, beta-catenin FL. The source holds these as a separate data set.

Where two headings read alike, the source gives them in different places.

T1 sequence (P35222 whole entry): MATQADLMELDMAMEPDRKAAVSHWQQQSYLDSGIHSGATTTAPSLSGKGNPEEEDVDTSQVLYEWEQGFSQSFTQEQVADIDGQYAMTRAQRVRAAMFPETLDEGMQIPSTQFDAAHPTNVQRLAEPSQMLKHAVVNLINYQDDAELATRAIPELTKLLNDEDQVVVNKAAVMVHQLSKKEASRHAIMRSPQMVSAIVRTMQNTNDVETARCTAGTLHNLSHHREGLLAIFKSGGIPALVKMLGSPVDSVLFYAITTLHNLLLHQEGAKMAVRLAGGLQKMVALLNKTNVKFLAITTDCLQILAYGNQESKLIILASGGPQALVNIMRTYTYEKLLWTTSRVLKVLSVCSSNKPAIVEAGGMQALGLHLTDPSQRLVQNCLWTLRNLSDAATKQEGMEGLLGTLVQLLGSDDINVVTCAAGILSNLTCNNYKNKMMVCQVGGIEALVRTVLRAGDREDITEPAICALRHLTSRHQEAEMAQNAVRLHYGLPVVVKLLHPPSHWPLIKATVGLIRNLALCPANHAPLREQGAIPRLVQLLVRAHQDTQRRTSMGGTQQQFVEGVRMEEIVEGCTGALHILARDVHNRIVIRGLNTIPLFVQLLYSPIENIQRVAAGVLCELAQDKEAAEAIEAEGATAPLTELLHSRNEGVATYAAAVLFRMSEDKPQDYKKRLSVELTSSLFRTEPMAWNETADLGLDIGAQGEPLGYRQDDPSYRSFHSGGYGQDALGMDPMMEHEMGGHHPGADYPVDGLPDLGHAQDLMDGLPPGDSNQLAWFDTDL
HuR, sequence (Q15717 whole entry): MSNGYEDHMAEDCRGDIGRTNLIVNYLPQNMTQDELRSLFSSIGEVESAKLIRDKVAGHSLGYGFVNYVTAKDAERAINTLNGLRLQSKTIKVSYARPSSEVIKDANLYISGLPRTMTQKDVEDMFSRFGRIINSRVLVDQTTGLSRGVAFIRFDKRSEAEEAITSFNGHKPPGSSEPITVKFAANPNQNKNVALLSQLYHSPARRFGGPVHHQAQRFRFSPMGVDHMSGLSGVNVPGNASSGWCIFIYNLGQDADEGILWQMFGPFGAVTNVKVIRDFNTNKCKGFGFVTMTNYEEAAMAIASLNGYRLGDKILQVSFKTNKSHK

B1: COX-2 3'-UTR U-3 (ssRNA)
RNA: GCGGAGAAAGGAGUCAUACUUGUGAAGACUUUUAUGUCACUACUCUAAAGAUUUUGCUGUUGCUGUUAAGUUUGGAAAACAGUUUUUAUUCUGUUUUAUAAACCAGAGAGAAAUGAGUUUUGACGUCUUUUUACUUGAAUUUCAACUUAUAUUAUAAGGACGAAAGUAAAGAUGUUUGAAUACUUAAACACUAUCACAAGAUGCCAA
Consider B1, for which binding in data set [1] was put at a Kd of 2600 nM.

B2: COX-2 3'-UTR U-4 (ssRNA)
RNA: UGUAACAGAAGUCAGUACUCCUGUUGCGGAGAAAGGAGUCAUACUUGUGAAGACUUUUAUGUCACUACUCUAAAGAUUUUGCUGUUGCUGUUAAGUUUGG
As for B2, the Kd is 131 nM in data set [2] and 3510 nM in data set [3].

B3: COX-2 3'-UTR U-1 (ssRNA)
RNA: AAGUCUAAUGAUCAUAUUUAUUUAUUUAUAUGAACCAUGUCUAUUAAUUUAAUUAUUUAAUAAUAUUUAUAUUAAACUCCUUAUGUUACUUAACAUCUUCUGUAACAGAAGUCAGUACUCCUGUUGCGGAGAAAGGAGUCAUACUUGUGA
For B3, binding in data set [3] was put at a Kd of 33.4 nM.

B4: COX-2 3'-UTR U-2 (ssRNA)
RNA: AAGUCUAAUGAUCAUAUUUAUUUAUUUAUAUGAACCAUGUCUAUUAAUUUAAUUAUUUAAUAAUAUUUAUAUUAAACUCCUUAUGUUACUUAACAUCUUCUGUAACAGAAGUCAGUACUCCUGUUGCGGAGAAAGGAGUCAUACUUGUGAAGACUUUUAUGUCACUACUCUAAAGAUUUUGCUGUUGC
As for B4, the Kd was determined as 81.3 nM in data set [3] and 158 nM in data set [1].

B5: negative control NC RNA (ssRNA)
RNA: CAUAGCUCAUUAUACCCUCCUGGGCUCAAGCAAUCCCCCUAACUCUGCCUCCCCAGUAGCUAGGACCACAGGCAUACACC
B5: the binding result in data set [4] was “no binding”.

The Kd is the concentration at which binding is half-saturated. Read a high Kd as weaker binding.

The record behind these values is article PMC3413138.
